System: peptide library, one residue held at a place counted from the S/T acceptor
Test: relative phosphorylation of the sub-library (ratio to the mean residue at this position); higher = residue favoured
Conditions: human
In short: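 Relative sub-library phosphorylation is a ratio to the mean residue at the same position. Purified recombinant kinases were incubated under kinase-specific conditions with biotinylated degenerate peptide sub-libraries, each fixing one residue at one position around a central Ser/Thr, using 50 μM peptide and 50 μM ATP spiked with γ-32P-ATP for 90 min. Spots captured on streptavidin membranes were phosphorimaged and quantified by densitometry.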

MAP4K4, construct: aa1-328, sequence (O95819 1-328, looked up): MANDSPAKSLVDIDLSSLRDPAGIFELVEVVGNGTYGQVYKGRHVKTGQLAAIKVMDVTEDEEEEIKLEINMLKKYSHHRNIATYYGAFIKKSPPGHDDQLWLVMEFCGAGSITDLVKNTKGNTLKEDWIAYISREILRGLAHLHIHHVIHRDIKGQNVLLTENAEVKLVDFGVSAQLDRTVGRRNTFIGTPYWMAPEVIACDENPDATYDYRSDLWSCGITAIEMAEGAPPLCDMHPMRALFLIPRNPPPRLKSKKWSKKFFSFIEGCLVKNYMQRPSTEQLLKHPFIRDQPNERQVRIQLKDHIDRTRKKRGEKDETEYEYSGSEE
MAPKAPK2, construct: Full length, sequence (P49137 whole entry, looked up): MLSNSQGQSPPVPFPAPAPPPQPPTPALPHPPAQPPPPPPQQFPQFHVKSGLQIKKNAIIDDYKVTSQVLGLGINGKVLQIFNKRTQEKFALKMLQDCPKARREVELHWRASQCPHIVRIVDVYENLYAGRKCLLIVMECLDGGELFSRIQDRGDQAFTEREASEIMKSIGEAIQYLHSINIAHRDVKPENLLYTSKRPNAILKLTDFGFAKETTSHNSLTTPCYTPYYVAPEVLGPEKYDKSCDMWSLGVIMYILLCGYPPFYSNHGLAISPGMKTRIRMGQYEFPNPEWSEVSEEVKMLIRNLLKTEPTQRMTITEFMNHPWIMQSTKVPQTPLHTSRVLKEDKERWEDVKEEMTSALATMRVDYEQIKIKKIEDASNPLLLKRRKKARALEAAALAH

MAPKAPK2, construct: Full length (from UniProt P49137)
relative phosphorylation
Conditions	at +1	at +2	at +3	at +4	at -1	at -2	at -3	at -4	at -5
A fixed	0.699	0.907	0.885	0.974	0.808	1.19	0.604	1.22	0.754
D fixed	0.716	1.92	2.48	1.79	1.12	0.349	0.262	0.669	0.268
E fixed	1.27	1.5	2.42	1.7	0.802	0.749	0.302	1.17	0.22
F fixed	0.729	0.59	0.436	0.561	0.69	0.568	0.212	0.659	1.39
G fixed	0.752	1.47	1.58	1.39	0.733	1.14	0.445	0.999	0.366
H fixed	1.52	1.18	1.1	1.01	1.38	0.778	1.08	1.07	0.67
I fixed	0.928	0.688	0.313	0.575	0.664	0.438	0.111	0.696	1.28
K fixed	0.861	0.655	0.784	0.987	1.2	0.693	1.91	1.75	0.51
L fixed	0.728	0.594	0.432	0.579	0.949	1.04	0.171	0.954	1.65
M fixed	1.27	0.616	0.43	0.598	0.994	1.67	0.275	1.23	1.14
N fixed	1.43	1.4	1.07	1.23	1.49	0.846	0.645	0.843	0.345
P fixed	0.206	1.48	1.75	1.84	1.69	0.655	0.889	0.805	1.42
Q fixed	1.47	1.04	1.17	1.07	1.31	3.73	1.03	1.33	0.941
R fixed	1.36	0.726	0.631	0.755	0.778	1.37	7.97	1.61	1.59
V fixed	1.14	0.885	0.501	0.739	0.87	0.615	0.154	0.725	1.1
W fixed	0.801	0.642	0.5	0.646	0.582	0.586	0.636	0.661	2.38
Y fixed	1.12	0.708	0.521	0.564	0.935	0.577	0.296	0.599	0.983
pThr fixed	1.61	1.04	1.11	1.83	0.519	0.372	0.258	0.504	0.365
pTyr fixed	5.15	2.06	1.63	1.61	1.04	0.397	0.218	0.557	0.646

MAP4K4, construct: aa1-328 (from UniProt O95819)
relative phosphorylation
Conditions	at +1	at +2	at +3	at +4	at -1	at -2	at -3	at -4	at -5
A fixed	0.704	0.925	0.833	1.06	1.11	1.09	1.06	1.03	1.31
D fixed	0.182	0.658	0.379	0.734	0.805	0.726	0.861	0.82	0.983
E fixed	0.181	0.553	0.325	0.487	0.423	0.544	0.672	0.913	0.714
F fixed	0.947	0.616	0.674	0.705	0.809	1.41	0.966	0.943	0.879
G fixed	0.648	1	0.812	1.2	1.65	1.07	1.23	1.08	1.27
H fixed	0.927	1.13	1.03	1.11	1.35	1.21	1.3	1.14	1.11
I fixed	1.72	0.567	0.575	0.689	0.42	0.804	0.7	0.744	0.807
K fixed	0.896	2.26	2.37	2.03	1.27	0.792	1.16	1.1	1.18
L fixed	2.32	0.728	0.734	0.785	0.941	0.776	0.809	0.808	0.752
M fixed	2.15	0.827	0.681	0.766	1.15	0.907	0.923	1.04	0.841
N fixed	0.688	0.905	0.823	0.956	1.17	0.952	1.09	0.929	0.843
P fixed	0.32	1.02	0.976	1.18	0.742	0.749	0.982	1	1.22
Q fixed	0.645	1.06	0.957	1.06	0.976	0.821	0.979	0.989	0.936
R fixed	0.851	2.49	3.56	1.97	1.41	0.934	1.18	1.16	1.13
V fixed	1.2	0.694	0.653	0.775	0.587	0.852	0.583	0.894	0.909
W fixed	1.6	0.756	0.871	0.823	0.892	1.42	1.27	1.28	1.09
Y fixed	1.02	0.806	0.746	0.669	1.28	1.94	1.22	1.13	1.04
pThr fixed	0.465	0.462	0.606	0.607	0.373	0.608	0.839	0.961	0.998
pTyr fixed	0.306	0.401	0.444	0.434	0.717	0.685	1.01	0.868	0.837

EIF2AK2, construct: aa252-end (from UniProt P19525)
relative phosphorylation
Conditions	at +1	at +2	at +3	at +4	at -1	at -2	at -3	at -4	at -5
A fixed	0.837	0.775	0.867	0.96	0.739	1.04	0.961	1.13	1.13
D fixed	0.526	0.705	0.665	0.818	0.726	0.939	1.13	1.05	0.979
E fixed	0.509	0.688	0.599	0.844	0.64	0.912	1.18	0.954	0.945
F fixed	0.695	0.616	1.02	0.701	0.681	0.989	0.774	1.06	0.853
G fixed	1.12	1.55	1.46	1.23	0.724	0.999	1.51	1.13	1.21
H fixed	0.762	1.2	1.16	1.24	1.21	1.14	0.95	1.02	1.07
I fixed	1.01	0.648	0.9	1.04	1.16	0.793	0.89	0.805	0.995
K fixed	1.93	1.5	1.76	1.36	1.93	1.03	1.11	1.15	1.15
L fixed	1.01	0.541	0.896	0.73	0.915	1.32	0.779	0.815	0.767
M fixed	1.25	0.643	0.779	0.935	1.03	1.01	0.961	0.868	0.884
N fixed	1.04	1.78	0.876	0.972	1.18	1.2	0.99	0.937	1
P fixed	0.4	0.644	0.966	0.815	0.648	0.963	0.969	0.954	0.93
Q fixed	1.22	0.845	0.925	0.811	0.95	1.02	0.855	0.92	0.855
R fixed	2.57	2.68	1.7	1.75	1.97	1.09	1.5	1.21	1.41
V fixed	0.897	0.708	0.798	0.812	1.07	0.863	0.819	0.875	0.824
W fixed	0.637	0.715	0.863	1.06	0.64	0.87	0.804	1.24	0.947
Y fixed	0.585	0.757	0.768	0.927	0.771	0.818	0.821	0.878	1.05
pThr fixed	0.58	0.605	0.729	0.854	0.677	0.853	1.04	0.992	0.947
pTyr fixed	0.489	0.897	0.717	0.853	0.629	0.933	0.955	0.735	0.968

From the supplement of paper PMC9876800
